Data from publication PMC6736635 (Nature structural & molecular biology, 2019).

Target: EZH2 (human, wild type, subunit of reconstituted PRC2 complexes) (human, UniProt Q15910-2 1-751)
Test: SEC

binding result: binds
B1: EED (human, wild type, subunit of reconstituted PRC2 complexes) (natural protein)
chain: not shown
